Experimental findings from patent US20050089521A1 are described below.

Experiment [1] addresses mouse trkC (on E11 mouse trigeminal neurons) (mouse) (UniProt Q6VNS1). Description: cell-based or functional assay.
Experiment [2] deals with rat trkC (on E12 rat trigeminal neurons) (rat) (UniProt Q03351). Description: cell-based or functional assay.
rat trkC (on E12 rat trigeminal neurons) (rat), sequence (Q03351 32-864): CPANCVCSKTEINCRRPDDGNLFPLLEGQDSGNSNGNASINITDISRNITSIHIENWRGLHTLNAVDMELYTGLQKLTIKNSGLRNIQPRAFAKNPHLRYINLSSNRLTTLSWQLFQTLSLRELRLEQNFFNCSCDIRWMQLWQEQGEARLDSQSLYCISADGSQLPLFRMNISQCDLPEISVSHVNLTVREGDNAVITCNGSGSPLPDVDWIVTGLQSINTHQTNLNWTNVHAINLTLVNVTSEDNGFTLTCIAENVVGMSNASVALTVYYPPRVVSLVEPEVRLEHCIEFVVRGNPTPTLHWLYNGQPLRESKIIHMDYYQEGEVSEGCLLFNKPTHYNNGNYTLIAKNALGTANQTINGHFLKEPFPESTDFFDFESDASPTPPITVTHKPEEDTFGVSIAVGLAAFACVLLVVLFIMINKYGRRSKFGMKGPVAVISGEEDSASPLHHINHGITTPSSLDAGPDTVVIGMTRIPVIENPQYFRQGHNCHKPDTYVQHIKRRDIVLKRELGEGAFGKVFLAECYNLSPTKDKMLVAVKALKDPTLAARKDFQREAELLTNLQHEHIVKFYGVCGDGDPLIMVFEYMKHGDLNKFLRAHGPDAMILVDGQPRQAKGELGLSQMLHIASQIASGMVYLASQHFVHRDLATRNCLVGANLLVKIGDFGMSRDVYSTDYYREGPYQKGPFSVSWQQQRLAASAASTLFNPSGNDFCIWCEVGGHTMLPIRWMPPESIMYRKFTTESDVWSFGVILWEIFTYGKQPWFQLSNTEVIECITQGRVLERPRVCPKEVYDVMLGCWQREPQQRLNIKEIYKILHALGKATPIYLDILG

mouse trkC (on E11 mouse trigeminal neurons) (mouse), sequence (Q6VNS1 32-825): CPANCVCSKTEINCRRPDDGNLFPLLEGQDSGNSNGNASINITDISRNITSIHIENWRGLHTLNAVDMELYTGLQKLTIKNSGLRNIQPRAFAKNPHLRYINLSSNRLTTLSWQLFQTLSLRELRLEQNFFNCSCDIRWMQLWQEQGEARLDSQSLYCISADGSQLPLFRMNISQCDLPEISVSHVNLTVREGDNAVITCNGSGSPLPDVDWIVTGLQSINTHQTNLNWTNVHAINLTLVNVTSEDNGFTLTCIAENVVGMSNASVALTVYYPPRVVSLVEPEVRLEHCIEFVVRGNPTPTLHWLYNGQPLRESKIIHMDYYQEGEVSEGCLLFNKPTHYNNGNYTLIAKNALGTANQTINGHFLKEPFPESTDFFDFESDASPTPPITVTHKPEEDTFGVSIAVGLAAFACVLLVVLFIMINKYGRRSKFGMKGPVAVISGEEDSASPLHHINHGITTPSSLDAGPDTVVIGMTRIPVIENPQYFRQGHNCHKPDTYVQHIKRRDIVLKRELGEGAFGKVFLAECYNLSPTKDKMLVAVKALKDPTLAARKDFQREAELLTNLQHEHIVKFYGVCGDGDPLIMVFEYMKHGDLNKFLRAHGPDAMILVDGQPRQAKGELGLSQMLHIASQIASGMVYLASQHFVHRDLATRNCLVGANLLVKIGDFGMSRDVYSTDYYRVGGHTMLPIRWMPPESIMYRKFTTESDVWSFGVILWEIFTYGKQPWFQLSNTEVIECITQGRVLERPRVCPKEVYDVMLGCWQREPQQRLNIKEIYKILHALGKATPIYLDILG

With neurotrophin-3 (NT-3) (ligand), the survival of trigeminal neurons after 24 hours in culture in experiment [1] and in experiment [2] was 0.08 ng/mL each time.
